# From CN115477698A (UNIV CHONGQING MEDICAL; FENG YULIN, dated 2022)
# Target: SARS-COV-2RBD (SARS-CoV-2, UniProt P0DTC2 319-541)
# Test: ELISA, RBD coated at 2 μg/mL, 293T transfection supernatant, anti-human IgG-ALP detection
row,Binder,binding result
1,"单抗17-CQTS062 (antibody, V domains shown) VH: EVQLVESGGGLVQPGRSLRLSCAASGFTFDDYAMHWVRQAPGKGLEWVSGISWNSDSIGYADSVKGRFTISRDNAKNSLYLQMNSLRAEDTALYYCAKDLSSGWDLFDYWGQGTLVTVSS VL: SYVLTQPPSVSVAPGKTARITCGGNNIGSKSVHWYQQKPGQAPVLVIYYDSDRPSGIPERFSGSNSGNTATLSISRVEAGDEAGYYCQVWDTSGDPLVFGGGTKLTVL",binds
2,"单抗14-CQTS058 (antibody, V domains shown) VH: EVQLVESGGGLVQPGRSLRLSCAASGFTFDDYAMHWVRQAPGKGLEWVSGISWSSGSIVYADSVKGRFTVSRDNAKNSLYLQMNSLRVEDTAFYYCAKDMVAGPHYYGMDVWGQGTTVTVSS VL: not shown",binds
3,"单抗15-CQTS059 (antibody, V domains shown) VH: EVQLVQSGAEVKKPGESLKISCKASGYRFTNYWTVWVRQMPGKGLEWMGIIYPGDSEIRYSPPFQGQVTISADKSISTAYLQWSSLKASDTAMYYCARHPSNFYDSGGDYYAMDVWGQGTPVTVSS VL: QSALTQPASVSGSPGQSITISCTGTSSNVGNYDLVSWYQQHPGKAPKLMIYEVNKRPSGVSDRFSGSKSGNTASLTISGLQAEDEADFYCCSYAGSSSWVFGGGTKVTVL",binds
4,"单抗18-CQTS063 (antibody, V domains shown) VH: QVQLVQSGAEVKKPGSSVKVSCKASGGTFSSYAISWVRQAPGQGLEWMGGIIPIFGTANYAQKFQGRVTITADESTSTAYMELSSLRSEDTAVYYCATDGGGGSYYYAHYYYGMDVWGQGTTVTVSS VL: QTVVTQEPSFSVSPGGTVTLTCGLSSGSVPTSYFPSWYQQTPGQAPRTLIYGTNTRSSGVPDRFSGSILGNKAALTITGAQADDESDYYCVLYMGSGIVVFGGGTKLTVL",binds
5,"单抗16-CQTS061 (antibody, V domains shown) VH: EVQLVESGGGLVQPGGSLRLSCAASGFTVISNYMSWVRQAPGKGLEWVSVIYRGGSTYFADSVKGRFTISRDNSKNTLYLQMNSLRAEDTAVYYCARLASDGSGSYLDYFDYWGQGTLVTVSS VL: QSVLTQPPSVSGAPGQRVTISCTGSSSNIGADYDVHWYQQFPGTAPKLLIYGNSNRPSGVPDRFSGSKSGTSASLAITGLQAEDEADYYCQSYDSSLSGSWVFGGGTKLTVL",binds
6,"单抗12-CQTS056 (antibody, V domains shown) VH: EVQLVQSGAEVKKPGESLKISCQGSGFSFSNYWIGWVRQMPGKGLEWMGIIYPDDSDTRYSPSFQGQVTISADKSISTAFLQWSSLKASDTAMYYCATRTGWTNDAFDIWGQGTMVTVSS VL: not shown",binds
7,"单抗13-CQTS057 (antibody, V domains shown) VH: QVTLRESGPALVKPTQTLTLTCTFSGFSLSTSGMCVSWIRQPPGKALEWLARIDWDDDKYYSTSLRTRLTISKDTSKNLVVLTMTNMDPVDTATYYCALGRAGTMDYWGQGTLVTVSS VL: DIQMTQSPSSLSASVGDRVTITCRASQSIRSYLNWYQQKPGKAPKVLIYAASSLQSGVPSRFSGSGSGTDFTLTISSLQPGDFATYYCQQSYSPPYTFGQGTKLEIK",binds
8,"单抗20-CQTS065 (antibody, V domains shown) VH: EMQLVESGGGLVQPGGSLRLSCAASGFTFSTYEMNWVRQAPGKGLEWVSYISSSTNSIYYAGSVQGRFTISRGNAKNSLYLQMNSLRAEDTAVYYCARGRDDYGDYRGGDFDYWGQGTLVTVSS VL: QIVLTQSPATLSLSPGERATLSCRASQSVTTYLAWYQQKPGQAPRLLIYDASHRATGIPARFSGSGSGTDFTLTISSLEPEDFAVYYCQQRSNWPPITFGPGTKVEIK",binds
9,"单抗19-CQTS064 (antibody, V domains shown) VH: EVQLVQSGAEVKKPGESLKISCEGSGYSFISYWIGWVRQMPGKGLEWMGIIYPGDSDTRYSPSFQGQVTISADRSISTAYLQWSSLKASDTAMYYCVRSDGDYVIGHDYWGQGTLVTVSS VL: not shown",binds
10,"单抗11-CQTS055 (antibody, V domains shown, also called 实施例1的新冠病毒RBD特异性单克隆抗体) VH: EVQLVESGGGLVQPGGSLRLSCAASGFTFSNYDMHWVRQGTGKGLEWVSAIGTAGDTYYPGSVKGRFTISRENAKNSLYLQMNSLRAGDTALYYCARVGYYGSGSYPLYWYFDLWGRGTLVTVSS VL: DIQMTPSPSSLSASVGDRVTITCRASQSISIYLNWYQQKPGKAPKLLIYAASNLQSGVPSRFSGSGSGTEFTLTISSLQPEDFATYFCQQSYSAPPWTFGQGTRVEIR",binds
